Experimental data reported in patent US8383386.

Experiments:
factor Va = factor Va (UniProt P12259)
factor Va, P12259 = molecular target: T1, factor Va, P12259
T1 chain 1: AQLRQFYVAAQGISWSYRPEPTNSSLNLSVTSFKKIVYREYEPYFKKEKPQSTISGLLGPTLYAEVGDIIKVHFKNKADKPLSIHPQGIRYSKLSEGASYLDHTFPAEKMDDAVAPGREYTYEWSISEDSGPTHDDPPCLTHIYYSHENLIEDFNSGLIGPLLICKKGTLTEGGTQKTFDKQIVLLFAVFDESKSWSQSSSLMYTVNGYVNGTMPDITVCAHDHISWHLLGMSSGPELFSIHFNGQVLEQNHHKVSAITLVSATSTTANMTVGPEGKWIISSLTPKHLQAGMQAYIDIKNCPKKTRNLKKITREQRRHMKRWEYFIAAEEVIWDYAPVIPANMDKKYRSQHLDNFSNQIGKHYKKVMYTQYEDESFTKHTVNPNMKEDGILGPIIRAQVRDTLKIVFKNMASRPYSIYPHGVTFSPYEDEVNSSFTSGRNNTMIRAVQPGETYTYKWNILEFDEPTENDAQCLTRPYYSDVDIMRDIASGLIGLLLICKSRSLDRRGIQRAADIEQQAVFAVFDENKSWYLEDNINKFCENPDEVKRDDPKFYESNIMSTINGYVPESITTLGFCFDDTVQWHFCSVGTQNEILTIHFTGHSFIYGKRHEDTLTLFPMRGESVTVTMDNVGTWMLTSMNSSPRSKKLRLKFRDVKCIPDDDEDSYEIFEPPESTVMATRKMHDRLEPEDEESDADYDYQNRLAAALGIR
T1 chain 2: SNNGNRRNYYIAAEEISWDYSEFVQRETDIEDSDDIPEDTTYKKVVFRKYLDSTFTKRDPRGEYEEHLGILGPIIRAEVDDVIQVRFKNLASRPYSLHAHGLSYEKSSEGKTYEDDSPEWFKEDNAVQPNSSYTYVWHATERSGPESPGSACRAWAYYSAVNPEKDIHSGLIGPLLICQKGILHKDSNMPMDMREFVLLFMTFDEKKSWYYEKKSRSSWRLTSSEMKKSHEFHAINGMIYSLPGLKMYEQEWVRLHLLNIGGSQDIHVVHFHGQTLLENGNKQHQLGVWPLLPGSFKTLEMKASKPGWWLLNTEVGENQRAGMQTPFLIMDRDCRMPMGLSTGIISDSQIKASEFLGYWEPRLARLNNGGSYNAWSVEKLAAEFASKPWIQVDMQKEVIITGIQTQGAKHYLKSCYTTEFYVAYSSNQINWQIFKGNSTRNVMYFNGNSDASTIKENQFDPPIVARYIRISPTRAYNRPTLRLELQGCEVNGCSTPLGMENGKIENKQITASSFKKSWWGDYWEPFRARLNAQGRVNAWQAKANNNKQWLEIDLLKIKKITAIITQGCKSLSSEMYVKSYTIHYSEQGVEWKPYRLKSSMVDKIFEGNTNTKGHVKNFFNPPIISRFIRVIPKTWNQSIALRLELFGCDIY

Molecule: recombinant factor Xa variant Ile16→Gly
- Km for peptidyl substrates after assembly into prothrombinase (factor Va): even the Km value for I235G was almost completely restored (3-fold increased compared to wild-type FXa) when assembled in prothrombinase

B1: recombinant factor Xa variant Val17→Ala (protein)
chain 1: ANSFLEEMKKGHLERECMEETCSYEEAREVFEDSDKTNEFWNKYKDGDQCETSPCQNQGKCKDGLGEYTCTCLEGFEGKNCELFTRKLCSLDNGDCDQFCHEEQNSVVCSCARGYTLADNGKACIPTGPYPCGKQTLER
chain 2: IAGGQECKDGECPWQALLINEENEGFCGGTILSEFYILTAAHCLYQAKRFKVRVGDRNTEQEEGGEAVHEVEVVIKHNRFTKETYDFDIAVLRLKTPITFRMNVAPACLPERDWAESTLMTQKTGIVSGFGRTHEKGRQSTRLKMLEVPYVDRNSCKLSSSFIITQNMFCAGYDTKQEDACQGDSGGPHVTRFKDTYFVTGIVSWGEGCARKGKYGIYTKVTAFLKWIDRSMKTRGLPKAKSHAPEVITSSPLK
- Km for peptidyl substrates after assembly into prothrombinase (factor Va, P12259): the assembly of FXaI235L and FXaV236A into prothrombinase almost completely restored the Km for peptidyl substrates
